Test results from US20120165265A1, “Calcium Signaling Modulators Involving STIM and ORAI Proteins” (priority 2009, published 2012).

Experiments:
Orai1 [1] = target: T1, Orai1 (Homo sapiens, UniProt Q96D31); assay: Whole-cell patch clamp recording of ICRAC in transfected HEK 293 cells; format: cell-based; design: expressed in transfected cells; host or cells: HEK 293
Method: Electrophysiology. HEK 293 cells were transfected 8-24 h prior to electrophysiology experiments with STIM1- and Orai1-derived constructs in a 1:1 mass ratio using Lipofectamine 2000. […] ICRAC in cells cultured without LaCl3 was similar to that in cells cultured with LaCl3, but most cells without LaCl3 died soon after break-in.
Currents were recorded using standard whole-cell patch clamp techniques (Prakriya and Lewis, 2001). Pipettes of resistance 2-5 MΩ were filled with an internal solution containing (in mM) 150 Cs aspartate, 8 MgCl2, 10 EGTA, and 10 HEPES (pH 7.2 with CsOH). Currents were sampled at 5 kHz and filtered at 2 kHz, and all voltages were corrected for the junction potential of the pipette solution relative to Ringer's in the bath (−13 mV).
Patch-clamp Experiments. Pipette-membrane seals were formed in 2 mM Ca^2+ Ringer's solution. After break-in to the whole-cell configuration, voltage stimuli consisting of a 100-ms step to −100 mV followed by a 100-ms ramp from −100 to +100 mV were delivered every 5 s from the holding potential of +30 mV. After the currents reached a steady level (˜300 s for wild-type STIM1), the external solution was changed via a multibarrel local perfusion pipette to a high-Ca^2+ Ringer's containing (in mM) 130 NaCl, 4.5 KCl, 20 CaCl2, 1 MgCl2, 10 D-glucose, and 5 HEPES (pH 7.4 with NaOH). All data were leak-corrected using the current elicited in 20 mM Ca^2+ Ringer's+10 μM LaCl3 at the end of the each experiment. LaCl3 and 2-APB were added directly to parent solutions on the day of the experiment from 10 mM and 100 mM stocks in H2O and DMSO, respectively.
As a definitive test for CRAC channel activation, we conducted whole-cell patch clamp recordings from HEK 293 cells transiently transfected with myc-Orai1 and either YFP-STIM1 or YFP-CAD. In cells expressing full length YFP-STIM1, ICRAC appeared over several minutes following break-in, consistent with the typical slow activation seen in response to passive store depletion (FIG. 2D). […] In contrast, inward current was present from the moment of break-in in cells expressing YFP-CAD (FIG. 2E). This current was identified as ICRAC based on its dependence on extracellular Ca^2+, inward rectification, sequential enhancement and inhibition by 2-APB, and inhibition by La^3+ (FIG. 2E and FIG. 10 C, D). ICRAC was not observed at break-in in HEK 293 cells transfected with YFP or YFP-CAD in the absence of Orai1 (FIG. 2F), consistent with the low level of endogenous STIM1 and Orai1 in these cells. […] Inactivation was restored by addition of STIM1 residues carboxy-terminal to CAD.

CRAC channels = target: T2, CRAC channels (Homo sapiens, UniProt Q96D31); assay: [Ca2+]i imaging in HEK 293 cells expressing STIM1 fragment and Orai1; format: cell-based; details: for effect on CAD-induced sustained elevation of [Ca2+]i: HEK 293 cells expressing Orai1 and CAD
T2 construct: expressed in transfected cells; host or cells: HEK 293
T2 sequence (Q96D31 whole entry, the tested form may be a part): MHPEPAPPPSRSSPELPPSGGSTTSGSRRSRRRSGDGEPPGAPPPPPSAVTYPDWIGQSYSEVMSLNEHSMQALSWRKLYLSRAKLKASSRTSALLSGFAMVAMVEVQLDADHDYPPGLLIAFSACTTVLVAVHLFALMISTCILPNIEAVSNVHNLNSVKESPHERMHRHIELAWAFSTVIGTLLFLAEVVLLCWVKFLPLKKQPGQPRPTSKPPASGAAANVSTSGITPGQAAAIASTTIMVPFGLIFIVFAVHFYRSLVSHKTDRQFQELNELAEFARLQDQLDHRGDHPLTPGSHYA
Method: Ca^2+ Imaging. For FIG. 2, cells were loaded at 37° C. in DMEM with 1 μM fura-2/AM for 30 min. Ratiometric Ca2+ imaging was performed at 340 and 380 nm in 2 mM Ca2+ Ringer's solution with a Nikon Eclipse 2000-U inverted microscope equipped with a fluorescent arc lamp, excitation filter wheel, and a Hamamatsu Orca CCD camera. Images were collected using Openlab (Improvision) and analyzed using Igor Pro.
To determine if CAD activates store operated Ca^2+ influx in cells, we measured [Ca^2+]i in HEK 293 cells expressing CAD and Orai1.

CAD [2] = target: T3, CAD (Homo sapiens, UniProt Q13586); assay: Yeast split ubiquitin assay, Orai1 fragments with CAD; format: binding; details: NubG-Orai1 fragment with CAD-Cub-LV in yeast
T3 construct: For STIM1 342-448 (CAD); expressed in transfected cells; host or cells: HEK 293T
T3 sequence (Q13586 342-448): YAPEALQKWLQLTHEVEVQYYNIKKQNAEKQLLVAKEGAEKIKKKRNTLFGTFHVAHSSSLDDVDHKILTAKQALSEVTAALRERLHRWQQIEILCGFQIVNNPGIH
Method: Split-Ubiquitin Yeast Two Hybrid Assay. Screening was performed according to the manufacturer's instructions (Dualsystems Biotech). Transformed yeast were selected on media lacking Trp and Leu (-TL). Interaction was observed by cell growth on plates lacking Trp, Leu, and His (TLH) in the presence of 3-aminotriazole (3-AT). Protein interactions were also assessed by measuring lacZ activity using the chromogenic substrate X-gal (5-bromo-4-chloro-3-indolyl-β-galactopyranoside).
Split-Ubiquitin Yeast Two Hybrid Assay. To generate fusion proteins with the N-terminal half of ubiquitin (Nub), full-length or fragments of Orai1 were amplified by PCR and cloned into the pDL2-Nubx vector (Dualsystems Biotech). The Nub sequence in the pDL2-Nubx plasmid contains a point mutation (NubG) that abolishes the spontaneous association of Nub to the C-terminal half of ubiquitin (Cub). The CAD was subcloned into the pAMBV4 vector, which contains Cub fused to a chimeric transcription factor consisting of the DNA binding domain from LexA and the VP16 transactivation domain.
(§1) STIM1-CAD BINDS TO THE N- AND C-TERMINI OF ORAI1. To identify regions of Orai1 important for activation by CAD, we characterized the binding of CAD to Orai1 using two approaches. First we expressed fusions of NubG with the N-terminus, the II-III cytoplasmic loop and the C-terminus of Orai1 in yeast together with different CAD-Cub-LV constructs. […] Based on the level of b-gal activity, CAD appears to interact with the Orai1 C-terminus with a higher affinity than with the N-terminus. We next expressed fusions of YFP with the N-terminus, the II-III loop and the C-terminus of Orai1 in HEK 293T cells together with Flag-myc-CAD.
(§2) To explore the interaction between the N-terminus of Orai1 and CAD in more detail we mapped the subregion within the N-terminus of Orai1 that is responsible for CAD binding, using both the split ubiquitin and HEK 293T co-immunoprecipitation assays.

CAD [3] = target: T3, CAD; assay: Co-immunoprecipitation of Orai1 fragments with CAD in HEK 293T cells; format: binding; details: YFP-tagged Orai1 fragment with Flag-myc-CAD in HEK 293T cells
Method: (§3) Immunoprecipitation and Immunoblot Analysis. Transfected HEK 293T cells (12-24 h) were washed with PBS and lysed in 50 mM Tris-HCl pH 7.5, 150 mM NaCl, 1% Triton X-100, and protease inhibitors. Lysates were spun at 12,000 rpm for 10 min, and the supernatant was incubated with anti-Flag M2 agarose beads (Sigma), or anti-myc or -HA antibody followed by IgG agarose beads (Pierce). Lysates and immunoprecipitates were subjected to SDS-PAGE, probed with HRP-conjugated secondary antibody and detected by enhanced chemiluminescence (Pierce).
as §1, §2

Orai1 [4] = target: T1, Orai1; assay: Co-immunoprecipitation with Orai1 in HEK 293T cells; format: binding; design: expressed in transfected cells; host or cells: HEK 293; details: 150 mM salt, 1% Triton X-100
Method: as §3
CAD Associates with Orai1 in vivo and in vitro. Because cytosolic CAD is a potent activator of Orai1 channels and is not associated with the ER, we hypothesized that CAD binds to Orai1. To test this idea, we first expressed YFP-CAD with or without myc-Orai1 in HEK 293 cells and examined its intracellular localization. […] To provide additional evidence that CAD and Orai1 are part of the same protein complex we expressed Flag-tagged CAD and GFP-tagged Orai1 in HEK 293T cells and immunoprecipitated CAD with anti-Flag antibodies. GFP-myc-Orai1 was detected in the immunoprecipitates from cells co-expressing CAD and Orai1 but not from cells expressing CAD or Orai1 alone (FIG. 3B).
Thus, CAD and Orai1 form a protein complex in mammalian cells.

T1 sequence (Q96D31 whole entry): as the sequence (Q96D31 whole entry, the tested form may be a part) above

Compound | interaction with CAD (b-gal, growth without histidine) (CAD [2]) | co-immunoprecipitation with CAD (CAD [3]) | also measured
NCCOB(c1ccccc1)c1ccccc1 [2-APB, 2-Aminoethoxydiphenylborate, reference compound] |  |  | effect on constitutive CAD-dependent ICRAC (Orai1 [1]; YFP-CAD+myc-Orai1 HEK 293 cell, 50 μM 2-APB, 20 mM Ca2+): increase in CAD-dependent current followed by a slower inhibition; effect on CAD-induced sustained elevation of [Ca2+]i (CRAC channels; 100 μM 2-APB): blocked
[Cl][La]([Cl])[Cl] [La^3+, LaCl3, reference compound] |  |  | effect on CAD-supported current (Orai1 [1]; YFP-CAD+myc-Orai1 cell, 10 μM LaCl3, 20 mM Ca2+o): rapid inhibition of current; effect on CAD-induced sustained elevation of [Ca2+]i (CRAC channels; 10 μM La3+): blocked
C-terminus of Orai1: Orai1 C-terminal fragment, SEQ ID NO:6 (HFYRSLVSHKTDRQFQELNELAEFARLQDQLDHRGDHPLTPGSHYA; H. sapiens) | strong interaction | interacts | 
CAD (342-440): CAD peptide with the last 8 aa deleted |  |  | co-immunoprecipitation with Orai1 (Orai1 [4]): retained the ability to bind to Orai1; [Ca2+]i / CRAC channel activation (CRAC channels; HEK 293 cells coexpressing construct and Orai1, no store depletion): eliminates its ability to activate CRAC channels
II-III loop of Orai1: Orai1 II-III cytoplasmic loop aa 142-177, SEQ ID NO:5 | lack of interaction | not | 
N-terminus of Orai1 (aa 1-91): Orai1 N-terminal fragment aa 1-91, SEQ ID NO:2 | weaker interaction | only very weakly | co-immunoprecipitation with CAD (CAD [3]; listed as N-terminus): interacts
Orai148-70: Orai1 fragment aa 48-70 (SAVTYPDWIGQSYSEVMSLNEHS; UniProt Q96D31 48-70, looked up, fragment) | not |  | 
Orai148-91: Orai1 N-terminal fragment aa 48-91, SEQ ID NO:3 | interacted strongly | co-immunoprecipitated | co-immunoprecipitation with CAD (CAD [3]; listed as Orai1-NT(48-91)): co-immunoprecipitates
Orai168-91: Orai1 fragment aa 68-91 | interacted strongly |  | 
YFP-CT-STIM1: YFP-tagged CT-STIM1 (236-685) [reference compound] |  |  | constitutive ICRAC (Orai1 [1]; HEK 293 cells cotransfected with construct and myc-Orai1, from break-in): failed to activate constitutive ICRAC
